Data taken from PMC7117912.

What was measured:
[1] = target: H2-D^b (mouse MHC I heavy chain ectodomain) refolded with human β2-microglobulin (mouse | human); experiment: SEC
[2] = target: H2-D^b (mouse MHC I heavy chain ectodomain) refolded with human β2-microglobulin (mouse | human); experiment: fluorescence polarisation
[3] = target: HLA-A*02:01 (human MHC I heavy chain ectodomain, amino acids 1-278) refolded with human β2-microglobulin (human)
[4] = target: HLA-A*02:01 (human MHC I heavy chain ectodomain, amino acids 1-278) refolded with human β2-microglobulin (human); experiment: fluorescence polarisation

Substance	reduction of the amount of complex against TAPBPR^wt (SEC peak area) [1] [%]	percent of fluorescent peptide released at 1 µM TAPBPR [2] [%]	dissociation rate constant of fluorescent peptide FLPSDC*FPSF from HLA-A*02:01 (300 nM) with 1 µM TAPBPR and 1000-fold excess of competitor peptide (uncatalyzed 1.90 × 10^-3 s^-1) [3] [s⁻¹]	percent of total MHC I-associated peptide dissociated at saturation (3 µM TAPBPR) [4] [%]	percent of total MHC I-associated peptide dissociated at saturation (3 µM TAPBPR) [2] [%]	dissociation rate constant of fluorescent peptide FLPSDC*FPSF from HLA-A*02:01 (300 nM) with 1 µM TAPBPR and 1000-fold excess of competitor peptide [3] [s⁻¹]
TAPBPR^Tsn-SL (human TAPBPR lumenal domain with the scoop loop replaced by the corresponding shorter loop of tapasin) (from UniProt Q9BX59 33-401) (domain or fragment)	40	12	0.0263	–	–	–
TAPBPR^wt (wildtype human TAP-binding protein-related, ER-lumenal domain) (from UniProt Q9BX59 33-401) (domain or fragment)	–	60	–	80	70	0.0158
TAPBPR^ΔSL (human TAPBPR lumenal domain with the scoop loop replaced by three glycine residues) (from UniProt Q9BX59 33-401) (domain or fragment)	90	–	–	–	–	0.00852
